Data from publication PMC10138348, “Continuous Fluorescent Sirtuin Activity Assay Based on Fatty Acylated Lysines” (International Journal of Molecular Sciences, 2023).

Target: F4, TNFα-derived peptide with a myristoylated lysine and fluorescein-labelled cysteine in the +2 position
Assay: fluorescence polarisation; SIRT2 in serial dilution from 1.6 µM, F4 10 nM, no NAD+, BSA from zero to 300 µM; 384-well plate, 20 mM Tris-HCl pH 7.8, 150 mM NaCl, 5 mM MgCl2; three independent replicates

B1: SIRT2 (enzyme)
chain: MAEPDPSHPLETQAGKVQEAQDSDSDSEGGAAGGEADMDFLRNLFSQTLSLGSQKERLLDELTLEGVARYMQSERCRRVICLVGAGISTSAGIPDFRSPSTGLYDNLEKYHLPYPEAIFEISYFKKHPEPFFALAKELYPGQFKPTICHYFMRLLKDKGLLLRCYTQNIDTLERIAGLEQEDLVEAHGTFYTSHCVSASCRHEYPLSWMKEKIFSEVTPKCEDCQSLVKPDIVFFGESLPARFFSCMQSDFLKVDLLLVMGTSLQVQPFASLISKAPLSTPRLLINKEKAGQSDPFLGMIMGLGGGMDFDSKKAYRDVAWLGECDQGCLALAELLGWKKELEDLVRREHASIDAQSGAGVPNPSTSASPKKSPPPAKDEARTTEREKPQ
- Kd: 7 to 18 nM
